Assay results reported in paper PMC3230689.

How the values were obtained:
FUS (FLAGHA-FUS-His6) [1] = target: T1, FUS (FLAGHA-FUS-His6) (human, UniProt P35637 1-526); test: EMSA
FUS (FLAGHA-FUS-His6) [2] = target: T1, FUS (FLAGHA-FUS-His6); test: EMSA; remark: listed apart in the source

T1 sequence (P35637 whole entry): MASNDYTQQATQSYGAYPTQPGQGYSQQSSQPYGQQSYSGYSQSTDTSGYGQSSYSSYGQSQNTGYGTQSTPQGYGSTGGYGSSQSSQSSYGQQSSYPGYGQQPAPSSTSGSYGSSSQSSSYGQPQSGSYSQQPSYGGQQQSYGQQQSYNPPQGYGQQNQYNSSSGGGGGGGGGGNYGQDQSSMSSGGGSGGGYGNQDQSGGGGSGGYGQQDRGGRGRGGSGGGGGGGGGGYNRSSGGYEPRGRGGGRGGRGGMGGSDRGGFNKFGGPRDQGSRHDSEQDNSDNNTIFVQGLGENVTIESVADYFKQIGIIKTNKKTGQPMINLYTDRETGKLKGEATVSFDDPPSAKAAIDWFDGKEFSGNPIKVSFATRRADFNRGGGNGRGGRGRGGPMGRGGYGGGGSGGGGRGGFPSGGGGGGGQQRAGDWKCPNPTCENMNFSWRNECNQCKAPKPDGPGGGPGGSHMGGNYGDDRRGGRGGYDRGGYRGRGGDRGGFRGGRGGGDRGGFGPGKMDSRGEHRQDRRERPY

Binder	Kd (FUS (FLAGHA-FUS-His6) [1]) [nM]	binding result (FUS (FLAGHA-FUS-His6) [1])	other results
AUUAUUAUUAUUAUUAUUAUUAUUAUUAUUAUUAUU (structured_RNA) [AUU trinucleotide repeat (x12)]	198		
GAUUUAUCUUUAACUACUCAAGAUACUGAACAUGACA (structured_RNA) [SON_AB (natural left-right stem)]	148		
GAUUAAGAUAUAACUACUCAAGAUACUGAACAUGACA (ssRNA) [SON_BB (non-complementary right-right stem)]		no binding	
GAUUAAGAUAUAACUACUCUAUCUUCUGAACAUGACA (structured_RNA) [SON_BA (reconstituted right-left stem)]		binds	
GGUGGUGGUGGUGGUGGUGGUGGUGGUGGUGGUGGU (ssRNA) [GGU trinucleotide repeat (x12)]			binding signal (FUS (FLAGHA-FUS-His6) [2]): > 15 fold lower Kd than SON_AB (at least; as worded in text)
